The text below walks through data of publication PMC7307210.

The target in this test is SAR1A (human) (UniProt Q9NR31). Description: liposome flotation assay; SAR1 and SEC31A-af incubated with 100-nm synthetic liposomes and GMP-PNP, 30 min at 37 °C, floated through a sucrose gradient in HKM buffer (pH 6.8); SDS-PAGE and SYPRO-Ruby staining; SEC31-af signal normalized to SAR1.

For the substance “GTPase-activating fragment of SEC31A (from UniProt O94979 1-1220) (domain or fragment)”, the fold recruitment relative to SAR1B was found to be 2 fold.
